Earlier results as cited in paper PMC4046138.

Target: mesothelin (Homo sapiens) (UniProt Q13421)
Chain of UniProt Q13421 (Q13421 other isoform, or with tags, fused parts or gaps): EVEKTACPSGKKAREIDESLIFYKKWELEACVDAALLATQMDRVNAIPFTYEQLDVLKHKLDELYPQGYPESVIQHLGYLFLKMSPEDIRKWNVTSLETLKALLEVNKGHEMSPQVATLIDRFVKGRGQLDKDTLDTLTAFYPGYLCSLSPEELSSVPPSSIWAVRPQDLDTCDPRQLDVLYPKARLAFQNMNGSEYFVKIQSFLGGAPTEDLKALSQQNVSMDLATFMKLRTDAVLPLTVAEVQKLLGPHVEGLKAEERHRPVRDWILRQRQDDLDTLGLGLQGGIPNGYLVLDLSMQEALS

- Kd: 5 nM
Substance: MUC16 (from UniProt Q8WXI7)
